In one data set the target is T1, N-Suc-AAA-pNA.
T1 chain: AAA

The next data set has as its target T2, N-Suc-AAPA-pNA.
T2 chain: AAPA

A further data set addresses T3, N-Suc-AAPD-pNA.
T3 chain: AAPD

The target in a further data set is T4, N-Suc-AAPF-pNA.
T4 chain: AAPF

A further data set addresses T5, N-Suc-AAPI-pNA.
T5 chain: AAPI

A further data set has as its target T6, N-Suc-AAPL-pNA.
T6 chain: AAPL

The next data set deals with T7, N-Suc-AAPM-pNA.
T7 chain: AAPM

In the next data set the target is T8, N-Suc-AAPV-pNA.
T8 chain: AAPV

For another data set, the target named is T9, N-Suc-AAV-pNA.
T9 chain: AAV

In a further data set the target is T10, N-Suc-AAVA-pNA.
T10 chain: AAVA

The target of a further data set is T11, N-Suc-FVR-pNA.
T11 chain: FVR

The target in the next data set is T12, N-Suc-GFG-pNA.
T12 chain: GFG

The next data set has as its target T13, N-Suc-GGF-pNA.
T13 chain: GGF

For the next data set, the target named is T14, N-Suc-GGG-pNA.
T14 chain: GGG

Another data set deals with T15, N-Suc-GGL-pNA.
T15 chain: GGL

For another data set, the target named is T16, N-Suc-GPK-pNA.
T16 chain: GPK

A further data set has as its target T17, N-Suc-IEGR-pNA.
T17 chain: IEGR

The next data set has as its target T18, N-Suc-PFR-pNA.
T18 chain: PFR

The target of a further data set is T19, N-Suc-VGR-pNA.
T19 chain: VGR

The target in the next data set is T20, N-Suc-YLV-pNA.
T20 chain: YLV

The target of the next data set is T21, N-Suc-YVAD-pNA.
T21 chain: YVAD

Data set [1] addresses human growth hormone, P01241.
Data set [2] deals with oxidized bovine insulin B chain, P01317.
oxidized bovine insulin B chain, P01317, sequence (P01317 25-54): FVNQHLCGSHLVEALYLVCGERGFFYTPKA

human growth hormone, P01241, sequence (P01241 27-217): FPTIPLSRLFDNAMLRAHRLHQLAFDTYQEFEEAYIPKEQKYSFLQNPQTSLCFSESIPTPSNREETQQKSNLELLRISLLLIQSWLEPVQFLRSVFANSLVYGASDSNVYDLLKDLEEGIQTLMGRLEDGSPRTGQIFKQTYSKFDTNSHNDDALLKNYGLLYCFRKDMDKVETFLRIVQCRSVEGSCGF

B1: Nicotianalisin (Nicotiana benthamiana subtilisin-like serine protease) (protein)
chain: ANCITMYFLLLTILLLTLNPLTMAESETYIIHMDLSAMPKAFSSHQNWYLTTLASVSGSSSLGTESNRNSFSSSKLVYAYTNAIHGFSATLSPSELQVIKNSPGYLSSTKDMTVKIDTTHTSQFLGLNSDSGAWPKSDYGKDVIVGLVDTGIWPESKSYNDNGMTEVPSRWKGECESGTQFNSSLCNKKLIGARYFNKGLIANNPNITISMNSARDTDGHGTHTSSTAAGSHVESASYFGYARGSATGMAPKAHVAMYKALWEEGTMLSDILAAIDQAIEDGVDIISLSLGIDDLALYEDPVAIATFAAMEKDIFVSTSAGNEGPDDQALHNGTPWVLTVAAGTVDREFIGTLSLGNGVSVTGLSLYPGNSSSSESSIVFLKTCLEEKELEKNAHKFAVCYDTNGSVSDQLYNVKNTKVAGGIFITNYTDLEFYLQSEFPAVFLNFEDGDKVLEYIKNSHSPKARLEFQVTHLGAKPAPKVASYSSRGPSESCPFILKPDLMAPGALILASWPQKSPATQIRSGELFSNFNIISGTSMSCPHAAGVAALLKGAHPKWSPAAIRSAMMTTADTMDNMQMPIRDIGRNNNAASPLAMGAGRINPNKALDPGLIYDITSQDYINLLCALDFTSQQIKAITRSSAYSCSNSSLDLNYPSFIGYFNYNSSESDPKRIQEFQRTVTNVGEGMSVYTAKLTSMGDYKASVAPDKLVFKEKYEKQSYKLRIEGPLLVDIILFMVL
As for B1, the Relative Activity (release of p-NA at 410 nm, 0.3 mM substrate) (% of the activity with N-Suc-AAPL-pNA) with N-Suc-AAA-pNA turned out to be 2; with N-Suc-AAPA-pNA, 24; in the data set with N-Suc-AAPD-pNA, 16; in the data set with N-Suc-AAPF-pNA it was 67; in the data set with N-Suc-AAPI-pNA, 8; in the data set with N-Suc-AAPL-pNA, 100. In addition, the Relative Activity (release of p-NA at 410 nm, 0.3 mM substrate) (% of the activity with N-Suc-AAPL-pNA) with N-Suc-AAPM-pNA worked out at 100; in the data set with N-Suc-AAPV-pNA it was 8; with N-Suc-AAV-pNA, 5; with N-Suc-AAVA-pNA it was 20; in the data set with N-Suc-FVR-pNA, 1; in the data set with N-Suc-GFG-pNA it was 1. Further, the Relative Activity (release of p-NA at 410 nm, 0.3 mM substrate) (% of the activity with N-Suc-AAPL-pNA) with N-Suc-GGF-pNA is 3; in the data set with N-Suc-GGG-pNA it was 1; with N-Suc-GGL-pNA, 1; in the data set with N-Suc-GPK-pNA, 2; with N-Suc-IEGR-pNA it was 18; with N-Suc-PFR-pNA, 1. Moreover, the Relative Activity (release of p-NA at 410 nm, 0.3 mM substrate) (% of the activity with N-Suc-AAPL-pNA) in the data set with N-Suc-VGR-pNA is 3; with N-Suc-YLV-pNA, 0; in the data set with N-Suc-YVAD-pNA, 70. In [1], the “in vitro cleavage of purified hGH at a 1:50 protease:substrate ratio, 10-30 min at 30 C, SDS-PAGE and Western blot (FIGS. 7 and 8)” value is “Two prominent immunoreactive degradation products were detected”. Moreover, in data set [2], the “hydrolysis of oxidized insulin B chain, 2 to 16 hr at 37 C, MALDI-TOF of the cleavage products (FIG. 6)” value was “hydrolysis occurred after leucine, cysteine, proline, and lysine amino acid residues”.

Values taken from patent US20040106198.
